Measured values taken from patent US7083932 (EUROSCREEN S A, dated 2006).

Target: orphan receptor ORL1 (Opioid Receptor-Like 1) stably expressed in recombinant CHO(ORL1+) cells
Assay: cell-based or functional assay

| inhibition of forskolin-induced accumulation of cAMP in recombinant CHO(ORL1+) cells, IC50 | inhibition of forskolin-induced accumulation of cAMP in CHO cells expressing the receptor, IC50 | Binder |
| --- | --- | --- |
| 0.9 nM | – | FGGFTGARKSARKLANQ |
| – | 1 nM | YGGFTGARKSARKLANQ [1Tyr analogue of the synthetic heptadecapeptide] |
